Results taken from patent US20260014232A1, “Pharmaceutical Composition of GLP-1 and GIP Receptor Dual Agonist and Use Thereof” (Jiangsu Hengrui Pharmaceuticals Co., Ltd., priority 2021, published 2026).
Starred links: 1 amine or outer side, 2 acyl side, 3 side chain; linkers in the order of their positions; H or OH if unused. Non-standard residues stand in square brackets, D forms with d. Groups on a side chain read outwards from the residue. No end group written: not given here. *: point of attachment. Arachidoyl = CCCCCCCCCCCCCCCCCCCC(=O)*; γGlu = O=C(O)[C@H](CCC(=O)[*:2])N[*:1]; AEEA = NCCOCCOCC(=O)O; Aib = CC(C)(N)C(=O)O

Legend:
[1] = target: human glucagon-like peptide-1 receptor (GLP-1R) (human, UniProt P43220 24-463); experiment: cell-based or functional assay
[2] = target: T1, human glucose-dependent insulinotropic polypeptide receptor (GIPR) (human, UniProt P48546 22-466); experiment: cell-based or functional assay
T1 sequence (looked up): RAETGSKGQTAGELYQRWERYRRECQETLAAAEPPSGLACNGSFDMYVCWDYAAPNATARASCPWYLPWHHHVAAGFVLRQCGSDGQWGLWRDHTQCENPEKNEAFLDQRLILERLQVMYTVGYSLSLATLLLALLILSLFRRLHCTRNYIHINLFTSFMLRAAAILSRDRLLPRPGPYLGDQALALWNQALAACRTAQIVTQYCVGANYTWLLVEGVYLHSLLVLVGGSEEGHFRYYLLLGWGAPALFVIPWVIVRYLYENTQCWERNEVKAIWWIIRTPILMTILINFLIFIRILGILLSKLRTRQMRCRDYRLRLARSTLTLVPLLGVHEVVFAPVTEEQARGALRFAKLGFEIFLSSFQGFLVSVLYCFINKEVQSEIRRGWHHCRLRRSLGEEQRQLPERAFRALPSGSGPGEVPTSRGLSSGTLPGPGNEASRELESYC

Row | Binder | Activity against human GLP-1R (EC50 nM); cAMP HTRF, CHO-K1/GLP-1R/CRE-luc cells [1] [nM] | Activity against human GIPR (EC50 nM); cAMP HTRF, CHO-K1 cells overexpressing hGIP receptor [2] [nM]
1 | Y[Aib]EGTFTSDYSIYLEK([AEEA-AEEA-γGlu-Arachidoyl])IAAQEFVNWLIAGGPSSGAPPPS-NH2 [compound 9#] | 0.049 | 0.04
2 | Y[Aib]EGTFTSDYSIYK([AEEA-AEEA-γGlu-Arachidoyl])ERIAAQEFVNWLIAGGPSSGAPPPS-NH2 (N-terminus assumed; SMILES CCCCCCCCCCCCCCCCCCCC(=O)N[C@@H](CCC(=O)NCCOCCOCC(=O)NCCOCCOCC(=O)NCCCC[C@H](NC(=O)[C@H](Cc1ccc(O)cc1)NC(=O)[C@@H](NC(=O)[C@H](CO)NC(=O)[C@H](Cc1ccc(O)cc1)NC(=O)[C@H](CC(=O)O)NC(=O)[C@H](CO)NC(=O)[C@@H](NC(=O)[C@H](Cc1ccccc1)NC(=O)[C@@H](NC(=O)CNC(=O)[C@H](CCC(=O)O)NC(=O)C(C)(C)NC(=O)[C@@H](N)Cc1ccc(O)cc1)[C@@H](C)O)[C@@H](C)O)[C@@H](C)CC)C(=O)N[C@@H](CCC(=O)O)C(=O)N[C@@H](CCCNC(=N)N)C(=O)N[C@H](C(=O)N[C@@H](C)C(=O)N[C@@H](C)C(=O)N[C@@H](CCC(N)=O)C(=O)N[C@@H](CCC(=O)O)C(=O)N[C@@H](Cc1ccccc1)C(=O)N[C@H](C(=O)N[C@@H](CC(N)=O)C(=O)N[C@@H](Cc1c[nH]c2ccccc12)C(=O)N[C@@H](CC(C)C)C(=O)N[C@H](C(=O)N[C@@H](C)C(=O)NCC(=O)NCC(=O)N1CCC[C@H]1C(=O)N[C@@H](CO)C(=O)N[C@@H](CO)C(=O)NCC(=O)N[C@@H](C)C(=O)N1CCC[C@H]1C(=O)N1CCC[C@H]1C(=O)N1CCC[C@H]1C(=O)N[C@@H](CO)C(N)=O)[C@@H](C)CC)C(C)C)[C@@H](C)CC)C(=O)O) [compound 13#] | 0.017 | 0.13
3 | Y[Aib]EGTFTSDYSIYK([AEEA-AEEA-γGlu-Arachidoyl])ERIAAQEFINWLIAGGPSSGAPPPS-NH2 (N-terminus assumed; SMILES CCCCCCCCCCCCCCCCCCCC(=O)N[C@@H](CCC(=O)NCCOCCOCC(=O)NCCOCCOCC(=O)NCCCC[C@H](NC(=O)[C@H](Cc1ccc(O)cc1)NC(=O)[C@@H](NC(=O)[C@H](CO)NC(=O)[C@H](Cc1ccc(O)cc1)NC(=O)[C@H](CC(=O)O)NC(=O)[C@H](CO)NC(=O)[C@@H](NC(=O)[C@H](Cc1ccccc1)NC(=O)[C@@H](NC(=O)CNC(=O)[C@H](CCC(=O)O)NC(=O)C(C)(C)NC(=O)[C@@H](N)Cc1ccc(O)cc1)[C@@H](C)O)[C@@H](C)O)[C@@H](C)CC)C(=O)N[C@@H](CCC(=O)O)C(=O)N[C@@H](CCCNC(=N)N)C(=O)N[C@H](C(=O)N[C@@H](C)C(=O)N[C@@H](C)C(=O)N[C@@H](CCC(N)=O)C(=O)N[C@@H](CCC(=O)O)C(=O)N[C@@H](Cc1ccccc1)C(=O)N[C@H](C(=O)N[C@@H](CC(N)=O)C(=O)N[C@@H](Cc1c[nH]c2ccccc12)C(=O)N[C@@H](CC(C)C)C(=O)N[C@H](C(=O)N[C@@H](C)C(=O)NCC(=O)NCC(=O)N1CCC[C@H]1C(=O)N[C@@H](CO)C(=O)N[C@@H](CO)C(=O)NCC(=O)N[C@@H](C)C(=O)N1CCC[C@H]1C(=O)N1CCC[C@H]1C(=O)N1CCC[C@H]1C(=O)N[C@@H](CO)C(N)=O)[C@@H](C)CC)[C@@H](C)CC)[C@@H](C)CC)C(=O)O) [compound 15#] | 0.015 | 0.23
4 | Y[Aib]EGTFTSDYSIYLEK([AEEA-AEEA-γGlu-Arachidoyl])IAAQEFINWLIAGGPSSGAPPPS-NH2 (N-terminus assumed; SMILES CCCCCCCCCCCCCCCCCCCC(=O)N[C@@H](CCC(=O)NCCOCCOCC(=O)NCCOCCOCC(=O)NCCCC[C@H](NC(=O)[C@H](CCC(=O)O)NC(=O)[C@H](CC(C)C)NC(=O)[C@H](Cc1ccc(O)cc1)NC(=O)[C@@H](NC(=O)[C@H](CO)NC(=O)[C@H](Cc1ccc(O)cc1)NC(=O)[C@H](CC(=O)O)NC(=O)[C@H](CO)NC(=O)[C@@H](NC(=O)[C@H](Cc1ccccc1)NC(=O)[C@@H](NC(=O)CNC(=O)[C@H](CCC(=O)O)NC(=O)C(C)(C)NC(=O)[C@@H](N)Cc1ccc(O)cc1)[C@@H](C)O)[C@@H](C)O)[C@@H](C)CC)C(=O)N[C@H](C(=O)N[C@@H](C)C(=O)N[C@@H](C)C(=O)N[C@@H](CCC(N)=O)C(=O)N[C@@H](CCC(=O)O)C(=O)N[C@@H](Cc1ccccc1)C(=O)N[C@H](C(=O)N[C@@H](CC(N)=O)C(=O)N[C@@H](Cc1c[nH]c2ccccc12)C(=O)N[C@@H](CC(C)C)C(=O)N[C@H](C(=O)N[C@@H](C)C(=O)NCC(=O)NCC(=O)N1CCC[C@H]1C(=O)N[C@@H](CO)C(=O)N[C@@H](CO)C(=O)NCC(=O)N[C@@H](C)C(=O)N1CCC[C@H]1C(=O)N1CCC[C@H]1C(=O)N1CCC[C@H]1C(=O)N[C@@H](CO)C(N)=O)[C@@H](C)CC)[C@@H](C)CC)[C@@H](C)CC)C(=O)O) [compound 10#] | 0.065 | 0.056
5 | Y[Aib]EGTFTSDYSIYK([AEEA-AEEA-γGlu-Arachidoyl])EKIAAQEFVNWLIAGGPSSGAPPPS-NH2 (N-terminus assumed; SMILES CCCCCCCCCCCCCCCCCCCC(=O)N[C@@H](CCC(=O)NCCOCCOCC(=O)NCCOCCOCC(=O)NCCCC[C@H](NC(=O)[C@H](Cc1ccc(O)cc1)NC(=O)[C@@H](NC(=O)[C@H](CO)NC(=O)[C@H](Cc1ccc(O)cc1)NC(=O)[C@H](CC(=O)O)NC(=O)[C@H](CO)NC(=O)[C@@H](NC(=O)[C@H](Cc1ccccc1)NC(=O)[C@@H](NC(=O)CNC(=O)[C@H](CCC(=O)O)NC(=O)C(C)(C)NC(=O)[C@@H](N)Cc1ccc(O)cc1)[C@@H](C)O)[C@@H](C)O)[C@@H](C)CC)C(=O)N[C@@H](CCC(=O)O)C(=O)N[C@@H](CCCCN)C(=O)N[C@H](C(=O)N[C@@H](C)C(=O)N[C@@H](C)C(=O)N[C@@H](CCC(N)=O)C(=O)N[C@@H](CCC(=O)O)C(=O)N[C@@H](Cc1ccccc1)C(=O)N[C@H](C(=O)N[C@@H](CC(N)=O)C(=O)N[C@@H](Cc1c[nH]c2ccccc12)C(=O)N[C@@H](CC(C)C)C(=O)N[C@H](C(=O)N[C@@H](C)C(=O)NCC(=O)NCC(=O)N1CCC[C@H]1C(=O)N[C@@H](CO)C(=O)N[C@@H](CO)C(=O)NCC(=O)N[C@@H](C)C(=O)N1CCC[C@H]1C(=O)N1CCC[C@H]1C(=O)N1CCC[C@H]1C(=O)N[C@@H](CO)C(N)=O)[C@@H](C)CC)C(C)C)[C@@H](C)CC)C(=O)O) [compound 12#] | 0.03 | 0.17
6 | Y[Aib]EGTFTSDYSIYK([AEEA-AEEA-γGlu-Arachidoyl])EKIAAQEFINWLIAGGPSSGAPPPS-NH2 (N-terminus assumed; SMILES CCCCCCCCCCCCCCCCCCCC(=O)N[C@@H](CCC(=O)NCCOCCOCC(=O)NCCOCCOCC(=O)NCCCC[C@H](NC(=O)[C@H](Cc1ccc(O)cc1)NC(=O)[C@@H](NC(=O)[C@H](CO)NC(=O)[C@H](Cc1ccc(O)cc1)NC(=O)[C@H](CC(=O)O)NC(=O)[C@H](CO)NC(=O)[C@@H](NC(=O)[C@H](Cc1ccccc1)NC(=O)[C@@H](NC(=O)CNC(=O)[C@H](CCC(=O)O)NC(=O)C(C)(C)NC(=O)[C@@H](N)Cc1ccc(O)cc1)[C@@H](C)O)[C@@H](C)O)[C@@H](C)CC)C(=O)N[C@@H](CCC(=O)O)C(=O)N[C@@H](CCCCN)C(=O)N[C@H](C(=O)N[C@@H](C)C(=O)N[C@@H](C)C(=O)N[C@@H](CCC(N)=O)C(=O)N[C@@H](CCC(=O)O)C(=O)N[C@@H](Cc1ccccc1)C(=O)N[C@H](C(=O)N[C@@H](CC(N)=O)C(=O)N[C@@H](Cc1c[nH]c2ccccc12)C(=O)N[C@@H](CC(C)C)C(=O)N[C@H](C(=O)N[C@@H](C)C(=O)NCC(=O)NCC(=O)N1CCC[C@H]1C(=O)N[C@@H](CO)C(=O)N[C@@H](CO)C(=O)NCC(=O)N[C@@H](C)C(=O)N1CCC[C@H]1C(=O)N1CCC[C@H]1C(=O)N1CCC[C@H]1C(=O)N[C@@H](CO)C(N)=O)[C@@H](C)CC)[C@@H](C)CC)[C@@H](C)CC)C(=O)O) [compound 14#] | 0.013 | 0.13
